Data: patent publication US20240391987A1 (ALAMAB THERAPEUTICS, published 2024)

How the values were obtained:
[1] = biological target: T1, Cx43 hemichannels of mouse osteocytes (MLO-Y4 cells) (mouse, UniProt P23242 2-382); test: cell-based or functional assay
[2] = biological target: T2, Cx43 hemichannels of primary human osteocytes (human, UniProt P17302 2-382); test: cell-based or functional assay
[3] = biological target: T2, Cx43 hemichannels of primary human …; test: cell ELISA on primary human osteocytes
[4] = biological target: T1, Cx43 hemichannels of mouse osteocytes …; test: cell ELISA on mouse osteocytes (MOL-Y4)

T1 sequence (P23242 2-382): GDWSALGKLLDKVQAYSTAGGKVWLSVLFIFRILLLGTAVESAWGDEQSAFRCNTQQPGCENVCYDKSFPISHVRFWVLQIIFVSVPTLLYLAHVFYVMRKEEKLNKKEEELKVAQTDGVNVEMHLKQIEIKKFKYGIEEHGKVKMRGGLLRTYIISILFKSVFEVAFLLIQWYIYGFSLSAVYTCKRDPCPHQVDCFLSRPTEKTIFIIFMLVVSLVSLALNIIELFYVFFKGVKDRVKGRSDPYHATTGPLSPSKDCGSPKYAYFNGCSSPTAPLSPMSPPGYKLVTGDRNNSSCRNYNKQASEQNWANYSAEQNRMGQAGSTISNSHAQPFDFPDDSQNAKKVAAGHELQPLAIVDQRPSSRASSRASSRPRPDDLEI
T2 sequence (P17302 2-382): as the sequence (P23242 2-382) above, with E123D, V163I, R242K, T250S, P252A, S256A, P262Q, S340N, A343S, V346L counted along it

EC50 of Cx43 hemichannel opening, EB staining, MOL-Y4 cells [1]: 2.33 µg/mL
plasma ATP level in mice, luciferin/luciferase assay, against saline-treated mice [1]: > 5 fold
EC50 of Cx43 hemichannel opening, EB staining, human osteocytes [2]: 3.97 µg/mL
EC50 [3]: 41 µg/mL
EC50 [4]: 37.3 µg/mL
B1: ALMB-0168 (antibody, V domains shown)
VH: EVQLVQSGAEVKKPGASVKVSCKASGYTFTSYYMYWVRQAPGQGLEWIGGINPSNAGTNFNEKFKNRATLTVDKSTSTAYMELSSLRSEDTAVYYCTREGNPYYTMNYWGQGTLVTVSS
VL: DVVMTQSPLSLPVTIGQPASISCKSSQSLLESDGKTYLNWLQQRPGQSPRRLIYLVSKLDSGVPDRFSGSGSGTDFTLKISRVEAEDVGVYYCWQGTHFPWTFGGGTKVEIKR
notes: also called anti-Cx43 antibody
